We go through 3 molecules from patent publication US20170190787A1 (INSERM INSTITUT NATIONAL DE LA SANT ET DE LA RECHERCHE M …, published 2017).

Assay [1] has as its target T1, EGFR fused to SNAP-tag, expressed on transfected HEK293T cells (UniProt P00533 25-1210, terbium cryptate donor fluorochrome (SNAP-Tb) covalently on the SNAP-tag).
T1 construct: whole, on cells; also called EGFR-ST; ErbB1-ST; not shown: SNAP-tag and FLAG tag (Cisbio plasmid)
The experiment in a line: time resolved fluorescence (HTRF) on EGFR-ST transfected HEK293T cells; apparent affinity.

For assay [2], the target named is T1, EGFR fused to SNAP-tag, expressed on …. The experiment in a line: HTRF on living cells; D4E in the presence of a large amount of monovalent D10 blocking the D10 epitope.
The target is the same in assay [3]. The experiment in a line: HTRF on living cells; D4E in the presence of a large amount of monovalent E10 blocking the E10 epitope. (In TR-FRET formats the signal depends on donor and acceptor labels being close together.)

B1: biparatopic single domain antibody D4E (D10 - 4x(G4S) linker - E10) (bispecific antibody)
chain: EVQLQESGGGLVQAGGSLRLSCAVSISRTIFSLYAMEWYRQPPGKQRDLVARIYRSGDTNYADSVKGRFTISRDNAKNTVYLQMNSLKPEDTGVYYCNSPAQDWPWGQGTQVTVSSAAAGGGGSGGGGSGGGGSGGGGSMAQVQLQESGGGLAQAGGSLRLSCAASGRTLSSYDMGWFRQAPGKEREFVTAINWGDLSTYYADSVKGRFTISRDNAKNTVYLQMNSLKPEDTAVYYCAARLRYTVSDPIFSRPDRYNYWGQGTQVTVSSAAAEQKLISEEDLNGAAHHHHHHGS
notes: also called bisdAb D4E
B1: the Kd in assay [1] stood at 6 nM; in assay [2], 100 nM; in assay [3] it was 22 nM.

B2: biparatopic single domain antibody D6E (D10 - 6x(G4S) linker - E10) (bispecific antibody)
chain: EVQLQESGGGLVQAGGSLRLSCAVSISRTIFSLYAMEWYRQPPGKQRDLVARIYRSGDTNYADSVKGRFTISRDNAKNTVYLQMNSLKPEDTGVYYCNSPAQDWPWGQGTQVTVSSAAAGGGGSGGGGSGGGGSGGGGSGGGGSGGGGSMAQVQLQESGGGLAQAGGSLRLSCAASGRTLSSYDMGWFRQAPGKEREFVTAINWGDLSTYYADSVKGRFTISRDNAKNTVYLQMNSLKPEDTAVYYCAARLRYTVSDPIFSRPDRYNYWGQGTQVTVSSAAAEQKLISEEDLNGAAHHHHHHGS
notes: also called bisdAb D6E
As to B2, the Kd in assay [1] stood at 6 nM.

B3: biparatopic single domain antibody D2E (D10 - 2x(G4S) linker - E10) (bispecific antibody)
chain: EVQLQESGGGLVQAGGSLRLSCAVSISRTIFSLYAMEWYRQPPGKQRDLVARIYRSGDTNYADSVKGRFTISRDNAKNTVYLQMNSLKPEDTGVYYCNSPAQDWPWGQGTQVTVSSAAAGGGGSGGGGSMAQVQLQESGGGLAQAGGSLRLSCAASGRTLSSYDMGWFRQAPGKEREFVTAINWGDLSTYYADSVKGRFTISRDNAKNTVYLQMNSLKPEDTAVYYCAARLRYTVSDPIFSRPDRYNYWGQGTQVTVSSAAAEQKLISEEDLNGAAHHHHHHGS
notes: also called bisdAb D2E
On to B3, for which, in assay [1], the Kd turned out to be 6 nM.
